Experimental data published in patent US20130259876A1 (published 2013).

Target: T1, nucleoprotein of influenza A virus (NP383-391) peptide on HLA-B*27:05 (human)
T1 peptide: SRYWAIRTR
Assay: activation reporter or marker

B1: GRb (TCR, V domains shown)
Valpha: AQTVTQSQPEMSVQEAETVTLSCTYDTSENNYYLFWYKQPPSRQMILVIRQEAYKQQNATENRFSVNFQKAAKSFSLKISDSQLGDAAMYFCAYFSGGSNYKLTFGKGTLLTVNP
Vbeta: DTEVTQTPKHLVMGMTNKKSLKCEQHMGHRAMYWYKQKAKKPPELMFVYSYEKLSINESVPSRFSPECPNSSLLNLHLHALQPEDSALYLCASSQEVLDTQYFGPGTRLTVL
B1: recognises.
